Laboratory results reported in US20200199213A1 (Eli Lilly, published 2020).

Target: T1, mouse LPL (mouse, UniProt P11152 28-474)
T1 sequence (looked up): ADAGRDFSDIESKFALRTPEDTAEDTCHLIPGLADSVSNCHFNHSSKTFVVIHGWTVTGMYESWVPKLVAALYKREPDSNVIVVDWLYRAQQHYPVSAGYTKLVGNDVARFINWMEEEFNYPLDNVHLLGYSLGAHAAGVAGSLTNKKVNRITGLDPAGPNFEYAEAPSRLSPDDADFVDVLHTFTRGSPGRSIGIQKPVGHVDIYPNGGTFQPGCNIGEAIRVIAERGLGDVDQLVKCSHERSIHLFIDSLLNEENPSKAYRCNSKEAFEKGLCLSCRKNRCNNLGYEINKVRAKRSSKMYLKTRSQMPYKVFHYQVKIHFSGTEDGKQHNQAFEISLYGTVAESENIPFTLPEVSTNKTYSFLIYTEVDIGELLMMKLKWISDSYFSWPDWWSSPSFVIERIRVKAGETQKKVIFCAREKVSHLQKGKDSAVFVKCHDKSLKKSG
Assay: cell-based or functional assay

B1: mouse ANGPTL3/8 complex (other)
chain 1: SRVDPDLSSFDSAPSEPKSRFAMLDDVKILANGLLQLGHGLKDFVHKTKGQINDIFQKLNIFDQSFYDLSLRTNEIKEEEKELRRTTSTLQVKNEEVKNMSVELNSKLESLLEEKTALQHKVRALEEQLTNLILSPAGAQEHPEVTSLKSFVEQQDNSIRELLQSVEEQYKQLSQQHMQIKEIEKQLRKTGIQEPSENSLSSKSRAPRTTPPLQLNETENTEQDDLPADCSAVYNRGEHTSGVYTIKPRNSQGFNVYCDTQSGSPWTLIQHRKDGSQDFNETWENYEKGFGRLDGEFWLGLEKIYAIVQQSNYILRLELQDWKDSKHYVEYSFHLGSHETNYTLHVAEIAGNIPGALPEHTDLMFSTWNHRAKGQLYCPESYSGGWWWNDICGENNLNGKYNKPRTKSRPERRRGIYWRPQSRKLYAIKSSKMMLQPTT
chain 2: VRPAPVAPLGGPEPAQYEELTLLFHGALQLGQALNGVYRATEARLTEAGHSLGLYDRALEFLGTEVRQGQDATQELRTSLSEIQVEEDALHLRAEATARSLGEVARAQQALRDTVRRLQVQLRGAWLGQAHQEFETLKARADKQSHLLWALTGHVQRQQREMAEQQQWLRQIQQRLHTAALPA
For B1, the “IC80 concentration (inhibition of LPL activity)” value was 130 pM.
